Common to all, as to details: both partners purified
Test [1] concerns the target T1, Nup133 N-terminal domain (Nup133NTD, residues 55-481, S. cerevisiae) (S. cerevisiae, UniProt P36161).
T1 construct: Nup133, S. cerevisiae, N-terminal beta-propeller domain, residues 55-481; The 6xHis tag is 3C cleavable; also called scNup133NTD; WT-Nup133NTD; source: E. coli LOBSTR-RIL(DE3), purified (Ni Sepharose, Superdex 75)
Put plainly: crystal structure; Nup133NTD-VHH-SAN4, 2.1 Å, molecular replacement; crystals at 18 °C, PEG 3,350, ammonium sulfate, Bis-Tris/HCl pH 5.5.

The target in test [2] is T2, Nup84 (full-length, S. cerevisiae) (S. cerevisiae, UniProt P52891).
T2 construct: Nup84, S. cerevisiae, full length; The N-terminal 10xHis-8xArg-SUMO tag is 3C cleavable; also called scNup84
Put plainly: crystal structure; Nup84-Nup133CTD-VHH-SAN8, 6.4 Å, SAD with a [TeW6O24]6- derivative; crystals at 18 °C, PEG 8,000, ethylene glycol, imidazole/MES pH 6.5.

Test [3] deals with T3, Nup84-Nup133CTD heterodimeric complex (S. cerevisiae) (Saccharomyces cerevisiae (strain ATCC …, UniProt P52891;P36161)).
T3 construct: Nup84, S. cerevisiae, full length; source: E. coli LOBSTR-RIL(DE3), co-expressed from a bicistronic vector, purified (Ni Sepharose, SP Sepharose, Superdex 200)
The test is described as above.

For test [4], the target named is T1, Nup133 N-terminal domain (Nup133NTD, …). The experiment in a line: crystal structure; Nup133NTD-VHH-SAN5, molecular replacement; six copies in the asymmetric unit; crystals at 18 °C, PEG MME 2,000, potassium chloride, Tris/HCl pH 8.0.
Test [5] deals with T2, Nup84 (full-length, S. cerevisiae). Put plainly: crystal structure; Nup84-Nup133CTD with VHH-SAN8 and VHH-SAN9, 7.4 Å; crystallised under the same conditions and in the same crystal form as the VHH-SAN8 complex.
Test [6] addresses T3, Nup84-Nup133CTD heterodimeric complex …. The test is described as above.

We go through four molecules from publication PMC7695694, “Yeast Nup84-Nup133 complex structure details flexibility and reveals conservation of the membrane anchoring ALPS motif” (Nature Communications, 2020).

T3 sequence (P52891 whole entry, chain 1 of 2): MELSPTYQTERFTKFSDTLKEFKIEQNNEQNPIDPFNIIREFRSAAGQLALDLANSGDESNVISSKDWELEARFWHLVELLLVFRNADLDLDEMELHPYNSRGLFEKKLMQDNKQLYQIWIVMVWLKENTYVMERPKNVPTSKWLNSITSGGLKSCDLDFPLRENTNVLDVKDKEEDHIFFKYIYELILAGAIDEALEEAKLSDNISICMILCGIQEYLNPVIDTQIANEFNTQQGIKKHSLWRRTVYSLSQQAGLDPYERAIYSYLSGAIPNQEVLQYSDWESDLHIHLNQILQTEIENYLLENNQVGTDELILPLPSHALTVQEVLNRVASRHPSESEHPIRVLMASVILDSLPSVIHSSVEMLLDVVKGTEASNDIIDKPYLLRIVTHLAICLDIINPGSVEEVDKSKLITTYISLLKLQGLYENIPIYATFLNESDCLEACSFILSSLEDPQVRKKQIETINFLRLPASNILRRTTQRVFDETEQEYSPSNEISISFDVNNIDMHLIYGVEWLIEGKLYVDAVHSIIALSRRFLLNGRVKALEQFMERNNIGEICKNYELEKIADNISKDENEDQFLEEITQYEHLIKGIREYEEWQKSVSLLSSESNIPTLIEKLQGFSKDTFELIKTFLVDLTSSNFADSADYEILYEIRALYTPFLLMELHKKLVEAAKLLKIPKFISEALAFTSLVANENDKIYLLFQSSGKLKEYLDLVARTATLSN
T3 sequence (P36161 521-1157, chain 2 of 2): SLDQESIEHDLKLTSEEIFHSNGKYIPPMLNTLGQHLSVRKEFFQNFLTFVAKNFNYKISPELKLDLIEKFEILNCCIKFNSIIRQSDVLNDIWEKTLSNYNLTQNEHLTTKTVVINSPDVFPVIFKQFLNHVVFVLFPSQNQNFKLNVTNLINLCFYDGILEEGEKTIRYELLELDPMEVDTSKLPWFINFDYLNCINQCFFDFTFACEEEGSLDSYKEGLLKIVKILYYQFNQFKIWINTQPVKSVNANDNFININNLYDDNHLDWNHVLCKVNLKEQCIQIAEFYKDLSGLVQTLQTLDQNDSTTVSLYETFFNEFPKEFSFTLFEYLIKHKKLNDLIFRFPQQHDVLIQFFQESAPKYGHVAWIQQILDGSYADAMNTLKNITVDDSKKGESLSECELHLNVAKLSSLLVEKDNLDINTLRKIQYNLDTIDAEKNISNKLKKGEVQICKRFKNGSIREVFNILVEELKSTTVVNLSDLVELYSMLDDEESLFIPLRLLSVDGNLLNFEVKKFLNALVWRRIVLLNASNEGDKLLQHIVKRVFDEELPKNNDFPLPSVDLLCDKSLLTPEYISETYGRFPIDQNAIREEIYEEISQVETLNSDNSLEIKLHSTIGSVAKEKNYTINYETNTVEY
T2 sequence (P52891 whole entry): as the sequence (P52891 whole entry, chain 1 of 2) above
T1 sequence (P36161 55-481): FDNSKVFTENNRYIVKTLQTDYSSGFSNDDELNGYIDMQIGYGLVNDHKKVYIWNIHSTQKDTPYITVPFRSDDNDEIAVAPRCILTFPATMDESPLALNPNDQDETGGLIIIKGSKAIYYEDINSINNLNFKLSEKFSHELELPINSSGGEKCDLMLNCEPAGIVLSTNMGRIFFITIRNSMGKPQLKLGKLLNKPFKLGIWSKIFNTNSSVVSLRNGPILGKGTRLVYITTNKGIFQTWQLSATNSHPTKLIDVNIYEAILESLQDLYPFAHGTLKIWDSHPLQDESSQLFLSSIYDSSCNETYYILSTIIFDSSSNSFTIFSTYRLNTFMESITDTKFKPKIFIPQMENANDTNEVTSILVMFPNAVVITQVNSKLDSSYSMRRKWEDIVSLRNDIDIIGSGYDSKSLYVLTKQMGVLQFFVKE

B1: VHH-SAN4 (VHH)
VHH: QLQLVESGGGSVQAGGSLTLSCTASESISKRIHGIGWFRQRRGEQREEIAYITTGGRPNLGDSVKDRFTISRDKSNGTVYLQMNSLKPEDTAVYYCHGRGRWWGTEGRLDYWGQGTQVTVSS
notes: structure with this nanobody deposited as PDB 6X05; also called nanobody VHH-SAN4; source: E. coli LOBSTR-RIL(DE3), purified (Ni Sepharose, tag cut with bdSENP1, Superdex 75); not shown: 14xHis, N-terminal, cleaved; bdSUMO, N-terminal, cleaved
Take B1: in test [1], the binding result is recorded as “binds”.

B2: VHH-SAN8 (VHH)
VHH: QLQLVETGGGLVQAGGSLRLSCVASGRTFTSYAMGWFRQAPGKEREFVAAISRLASGTDYADSVKGRFTISRNNDKNTVYLQMNNLIPEDTAVYYCAALQALRFSLPIAMATMKNGRADSWGQGTQVTVSS
notes: structures with this nanobody deposited as PDB 6X02 and 6X03 (modelled as a generic nanobody without CDRs); Selected by phage display from an alpaca immunised with the full-length Y complex, panned against Nup84; also called VHH8; nanobody VHH-SAN8; source: E. coli LOBSTR-RIL(DE3), purified (Ni Sepharose, tag cut with bdSENP1, Superdex 75); not shown: 14xHis, N-terminal, cleaved; bdSUMO, …
On to B2, for which the binding result in test [2] and in test [3] was “binds” throughout.

B3: VHH-SAN5 (VHH)
VHH: QVQLVESGGGLVQAGGSLRLSCAASGSIGSLDAMAWYRRAPGKQRERVASISRYGTYYVDSVKGRFTISRDNAKNTVYLQMNSLKPEDTGVYYCKGVMEVGGVIDEYWGQGTQVTVSS
notes: structure with this nanobody deposited as PDB 6X04; also called nanobody VHH-SAN5; source: E. coli LOBSTR-RIL(DE3), purified (Ni Sepharose, tag cut with bdSENP1, Superdex 75); not shown: 14xHis, N-terminal, cleaved; bdSUMO, N-terminal, cleaved
Take B3: the binding result in test [4] is recorded as “binds”.

B4: VHH-SAN9 (VHH)
VHH: QVQLVESGGGSVQAGGSLRLSCAVSGGTLSTLAMGWFRQAPGQEREFVARIGWTNGDTGYADSVKGRFTISRDNVKNTVYLQMNNLKPEDTALYYCATRRPYGSTLYPPNTESAHDNWGQGTQVTVSS
notes: structure with this nanobody deposited as PDB 6X03 (modelled as a generic nanobody without CDRs); also called VHH9; nanobody VHH-SAN9; source: E. coli LOBSTR-RIL(DE3), purified (Ni Sepharose, tag cut with bdSENP1, Superdex 75); not shown: 14xHis, N-terminal, cleaved; bdSUMO, N-terminal, cleaved
Regarding B4, the binding result in test [5] and in test [6] was “binds” in each case.
